Patent US20100021473A1 (DOMANTIS, published 2010)
Where a chain is given by its changes, count along the chain named. Blank lines part the entries; values can stand above or below the binder they belong to.

Key:
[1] = target: T1, CEA immobilised on Biacore CM5 chip (UniProt P06731 35-685, limits assumed); assay: Biacore, CEA immobilised
T1 construct: also called DOM13
T1 sequence (looked up): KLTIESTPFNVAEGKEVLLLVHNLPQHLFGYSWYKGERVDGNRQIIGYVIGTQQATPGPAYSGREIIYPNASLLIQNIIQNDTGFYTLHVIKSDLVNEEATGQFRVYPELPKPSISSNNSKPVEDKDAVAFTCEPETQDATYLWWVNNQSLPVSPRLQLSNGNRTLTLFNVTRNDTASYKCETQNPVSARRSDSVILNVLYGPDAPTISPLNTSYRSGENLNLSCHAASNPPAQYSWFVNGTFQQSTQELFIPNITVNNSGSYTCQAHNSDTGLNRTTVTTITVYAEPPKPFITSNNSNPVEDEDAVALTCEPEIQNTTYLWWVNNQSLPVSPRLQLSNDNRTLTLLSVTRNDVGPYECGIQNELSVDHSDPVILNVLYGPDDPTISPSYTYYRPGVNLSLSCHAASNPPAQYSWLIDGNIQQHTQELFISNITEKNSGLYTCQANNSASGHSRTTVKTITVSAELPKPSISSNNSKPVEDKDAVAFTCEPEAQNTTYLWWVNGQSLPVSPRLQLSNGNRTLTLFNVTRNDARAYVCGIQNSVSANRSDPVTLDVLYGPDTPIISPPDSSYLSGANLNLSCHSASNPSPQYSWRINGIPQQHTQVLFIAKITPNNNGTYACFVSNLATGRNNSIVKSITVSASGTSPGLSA
Description: (§1) Anti-CD38, anti-CEA and anti-CD56 dAbs that were identified as FACS positive clones were in addition analysed by Biacore using the following procedure. The CM5 chip surface was activated by flushing 1:1 EDC/NHS (0.4M1-ethyl-3-(3-dimenthylaminopropyl)-carbodiimide in water; 0.1 M N-hydroxysuccinimide in water) at a flow rate of 5 uL/min for 10 minute contact time. CD38 was immobilised at 500 nM in Acetate buffer pH4 at 5 uL/min this was repeated until the RUs reached between 500 and 1000 (low density). CEA and CD56 were coupled in acetate buffer pH 4.5. Any excess reactive groups were deactivated by running 1M ethanolamine-HCl over the CM5 chip (again 5 uL/min for 7 mins). The affinities of the anti-CD38, anti-CEA and anti-CD56 dAbs were measured on the biacore as described above.

[2] = target: T2, NCA on H647 cells (UniProt P40199 35-320, limits assumed); assay: FACS on H647 cells (CEA-/NCA+)
T2 construct: whole, on cells; Its identity is an inference
T2 sequence (looked up): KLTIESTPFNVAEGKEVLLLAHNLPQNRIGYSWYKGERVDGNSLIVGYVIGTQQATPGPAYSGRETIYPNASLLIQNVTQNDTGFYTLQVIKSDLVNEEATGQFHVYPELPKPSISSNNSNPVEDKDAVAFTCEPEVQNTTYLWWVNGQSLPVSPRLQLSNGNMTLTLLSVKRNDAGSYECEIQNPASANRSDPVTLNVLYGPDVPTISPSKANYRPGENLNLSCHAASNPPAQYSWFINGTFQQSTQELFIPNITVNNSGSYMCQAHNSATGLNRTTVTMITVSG
Description: (§2) All dAbs were analysed by FACS on antigen positive and negative cell lines using the following method.
(§3) The determination of cell binding by FACS was carried out as follows: cells were centrifuged at 250 g for 5 minutes and the growth medium was removed. The cells were resuspended in FACS incubation buffer at 4° C. at a density of 2×10⁶ cells/ml. The cells were blocked by incubating for 15 minutes at 4° C. in FACS incubation buffer. Fifty microliters of 2× stock of primary antibody (anti-CD38 FITC, anti-CD138 FITC or mIgG1 FITC conjugated isotype control (all BD Biosciences) was added; or dAb was added to cells in FACS incubation buffer and incubated for 30-60 minutes at 4° C. The cells were then washed once in FACS incubation buffer. One hundred microliters of secondary antibody (rabbit anti-Vk) was added to cells in FACS incubation buffer and incubated 30-60 minutes at 4° C. The cells were washed once in FACS incubation buffer. Then 100 ul of 1× tertiary antibody was added to the cells in FACS incubation buffer and incubated for 30-60 mins at 4° C. (for dAbs the tertiary antibody is anti-rabbit FITC (Sigma)). The cells were washed twice in FACS incubation buffer. The cell pellet was resuspend in 200 ul FACS incubation buffer+viable cell marker (BD Viaprobe). The cells were then analyzed by flow cytometry.

[3] = target: T3, CD38 immobilised on Biacore CM5 chip (UniProt P28907 43-300, limits assumed); assay: Biacore, CD38 immobilised
T3 construct: also called DOM11
Description: as §1
Affinity maturation libraries were created for the anti-CD38 dAbs DOM11-3 and DOM11-30 by error prone PCR. […] Initial screening was carried out by BIAcore (as described previously) and subsequently by FACS.

[4] = target: T3, CD38 immobilised on Biacore CM5 chip; assay: SPR (Biacore), CD38 immobilised on CM5 chip
Description: as §1

[5] = target: T4, CD138 on cells (UniProt P18827 23-310); assay: FACS on RPMI cells (CD38+/138+)
T4 construct: whole, on cells; Endogenous CD138 on cell lines used in FACS; also called DOM12; syndecan-1
T4 sequence (looked up): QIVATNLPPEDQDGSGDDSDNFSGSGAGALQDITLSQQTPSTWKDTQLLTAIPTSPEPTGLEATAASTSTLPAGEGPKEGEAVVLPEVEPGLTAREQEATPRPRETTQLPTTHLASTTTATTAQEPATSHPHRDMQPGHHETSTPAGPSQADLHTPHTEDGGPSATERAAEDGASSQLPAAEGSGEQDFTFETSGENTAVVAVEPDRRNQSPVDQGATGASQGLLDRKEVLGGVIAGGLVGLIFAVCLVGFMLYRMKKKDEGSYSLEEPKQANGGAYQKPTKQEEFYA
Description: as §2, §3

[6] = target: T4, CD138 on cells; assay: FACS dot plot (FSC-H against FL1-H) on H647 cells (CD38-/CD138+), ligand at 50 nM
[7] = target: T5, CD38 and CD138 co-expressed on cells (CD38+/CD138+ double positive cells) (UniProt P28907 1-300; P18827 23-310); assay: FACS cell binding titration on OPM2 cells (CD38+/CD138+), arithmetic mean fluorescence. The table prints no unit; the unit is taken from the x axis 'log conc in nm' (nanomolar).
T5 construct: whole, on cells; Two separate membrane proteins on the same cell, not a complex; also called RPMI8226; OPM2
Description: as §3
Anti-CD38 and anti-CD138 affinity matured dAbs were paired to create dual specific ligands by cloning an anti-CD38 dAb and an anti-CD138 dAb into a dual expression vector. To determine if the increased affinity of the monomers was reflected in increased binding affinity of the dual specific ligand, a range of the affinity matured anti-CD38 dAbs were paired with the anti-CD138 dAb DOM12-45, a range of affinity matured anti-CD138 dAbs were paired with anti-CD38 dAbs, and a range of affinity matured anti-CD38 dAbs and affinity matured anti-CD138 dAbs were paired. All dual specific ligands were expressed in E. coli and purified using protein L agarose followed by Resource S cation exchange chromatography when required. The binding affinity of the dual specific ligands was assessed by FACS as described previously. In this study, a range of concentrations was used to allow determination of EC50.

[8] = target: T5, CD38 and CD138 co-expressed on cells …; assay: FACS cell binding titration on OPM2 cells (CD38+/CD138+), arithmetic mean fluorescence against log conc in nm
[9] = target: T6, CD38 on cells (UniProt P28907 1-300); assay: FACS on RPMI cells (CD38+/138+)
T6 construct: whole, on cells; Endogenous CD38 on cell lines used in FACS or microscopy; also called DOM11; T10
Description: as §2, §3

[10] = target: T4, CD138 on cells; assay: FACS on HUVEC cells (CD38-/CD138+)
Description: as §2, §3

[11] = target: T5, CD38 and CD138 co-expressed on cells …; assay: cell-based or functional assay
[12] = target: CD138 and CD56 co-expressed on cells (CD138+/CD56+ double positive cells) (UniProt P18827); assay: cell-based or functional assay

B2: DOM11-30 (other)
chain: DIQITQSPSSLSASVGDRITITCRASQKIENDLAWYQQKPGKAPKLLIYYTSILQSGVPSRFSGSGSGTDFTLTISSLQPEDFATYYCQQRRYVPATFGQGTKVEIKR
notes: Anti-CD38 dAb monomer
Kd [3]: 190 to 230 nM | Kd [4]: 150 nM

B4: DOM11-3/DOM12-45 anti-CD38/anti-CD138 dual specific ligand (bispecific antibody)
chain: DIQMTQSPSSLSASVGDRVTITCRASQNIDSRLSWYQQKPGKAPKLLIYRTSVLQSGVPSRFSGSGSGTDFTLTISSLQPEDFATYYCQQWDMFPLTFGQGTKVEIKRSSGGGGSGGGGSGGGGSGGGGSGGGGSTDIQMTQSPSSLSASVGDRVTITCRASQDIGDRLRWYQQKPGKAPKLLIYHGSRLESGVPSRFSGSRSGTDFTLTISSLQPEDFATYYCQQQWFRPYTFGQGTKVEIKR
notes: In-line fusion of two dAbs, expressed in E. coli; also called DOM11-3/12-45
percent of cells right of the FL1-H gate line [6]: 3% | EC50 [7]: 44.4 nM

B5: DOM11-3-15/DOM12-45-1 (bispecific antibody)
chain: B4 chain with T51A, S65T, T97S, K175N, S201N
EC50 (read off the curve) [8]: 100 nM

B7: DOM13-25 (other)
chain: DIQMTQSPSSLSASVGDRVTITCRASQSIGPWLSWYQQKPGKAPKLLIYQVSRLQSGVPSRFSGSGSGTDFTLTISSLQPEDFATYYCQQNLAPPYTFGQGTKVEIKR
notes: Anti-CEA dAb monomer
Kd [1]: 100 to 200 nM | binding result [2]: no binding

B10: DOM11-30/DOM12-45 anti-CD38/anti-CD138 dual specific ligand (bispecific antibody, part only; not given: linker between dAbs, not shown: small tags and cut ends)
chain, part: DIQITQSPSSLSASVGDRITITCRASQKIENDLAWYQQKPGKAPKLLIYYTSILQSGVPSRFSGSGSGTDFTLTISSLQPEDFATYYCQQRRYVPATFGQGTKVEIKRDIQMTQSPSSLSASVGDRVTITCRASQDIGDRLRWYQQKPGKAPKLLIYHGSRLESGVPSRFSGSRSGTDFTLTISSLQPEDFATYYCQQQWFRPYTFGQGTKVEIKR
% internalized [11]: 8%

Further lines, results first:

Kd [1]: 400 to 800 nM | binding result [2]: no binding
B1: DOM13-59 (other)
chain: DIQMTQSPSSLSASVGDRVTITCRASQKIMTHLRWYQQKPGKAPKLLIYGGSHLQSGVPSRFSGSGSGTDFTLTISSLQPEDFATYYCQQTWVSPMTFGQGTKVEIRR
notes: Anti-CEA dAb monomer

binding result [5]: binds
B3: DOM12-17 (other)
chain: B2 chain with I4M, I19V, K28S, E30G, D32N, A34L, I53R, Y93T, V94H, A96H
notes: Anti-CD138 dAb monomer

binding result [9]: binds | binding result [10]: no binding
B6: DOM11-7 (other)
chain: B7 chain with S28Y, G30N, P31T, W32L, Q50A, V51Q, N91F, L92A, A93F, P94R
notes: Anti-CD38 dAb monomer

Kd [1]: 100 to 200 nM | binding result [2]: no binding
B8: DOM13-74 (other)
chain: DIQMTQSPSSLSASVGDRVTITCRASQPIKMMLSWYQQKPGKAPKLLIYNNSTLQSGVPSRFSGSGSGTDFTLTISSLQPEDFATYYCQQYRRWPYTFSQGTKVEIKR
notes: Anti-CEA dAb monomer

binding result [5]: binds
B9: DOM12-26 (other)
chain: DIQMTQSPSSLSASVGDRVTITCRASQDIFTKLRWYQQKPGKAPRLLIYAGSRLQSGVPSRFSGSGSGTDFTLTISSLQPEDFATYYCQQVKQKPWTFGQGTKVEIKR
notes: Anti-CD138 dAb monomer

% internalized [12]: 43%
B11: DOM14-23/DOM12-45 anti-CD138/anti-CD56 dual specific ligand (bispecific antibody, part only; not given: linker between dAbs, not shown: small tags and cut ends)
chain, part: DIQMTQSPSSLSASVGDRVTITCRASQDIFPFLNWYQQKPGKAPELLIYRASILHSGVPSRFSGSGSGTDFTLTISSLQPEDFATYYCQQIARSPRTFGQGTKVEIKRDIQMTQSPSSLSASVGDRVTITCRASQDIGDRLRWYQQKPGKAPKLLIYHGSRLESGVPSRFSGSRSGTDFTLTISSLQPEDFATYYCQQQWFRPYTFGQGTKVEIKR
